Data set [1] in a line: Stopped-flow pre-steady-state kinetics of substrate binding (tryptophan fluorescence quenching). Particulars: 15° C. Here is the method: The measurement was performed at 15° C. in 100 mM potassium phosphate buffer pH 7.5. Rapid mixing of the components was achieved using the Stopped-Flow SFM 3000 combined with the MOS-500 spectrometer (BioLogic, France). The reaction was initiated by mixing 75 μL of an enzyme with 75 μL of coelenterazine and then monitored by the change of native tryptophan fluorescence (295 nm excitation, 340±13 nm emission). The fluorescence changes were caused by the quenching effect of the coelenterazine substrate upon its binding by an enzyme. The experiment was designed in two different modes, varying either the concentration of the coelenterazine substrate or the concentration of an enzyme. Each kinetic trace was measured in seven consecutive replicates and averaged. The concentration of coelenterazine in the final reaction mixture ranged from 0.9 to 90 μM while the concentration of luciferase enzymes ranged from 0.4 to 94 μM.
The collected double-exponential kinetic traces were fitted globally with the KinTek Explorer (KinTek Corporation, USA). The software allows for the input of a given kinetic model via a simple text description, and the program then derives the differential equations needed for numerical integration automatically. Numerical integration of rate equations searching a set of kinetic parameters that produce a minimum χ^2 value was performed using the Bulirsch-Stoer algorithm with adaptive step size, and nonlinear regression to fit data was based on the Levenberg-Marquardt method. Residuals were normalized by sigma values for each data point. The standard error was calculated from the covariance matrix during nonlinear regression. In addition to standard error values, more rigorous analysis of the variation of the kinetic parameters was accomplished by confidence contour analysis by using FitSpace Explorer (KinTek Corporation, USA). In these analyses, the lower and upper limits for each parameter were derived from the confidence contour obtained from setting the χ^2 threshold at 0.95.
The time-course of the fluorescence quenching upon substrate binding was described with Equation (7) according to the induced-fit binding mechanism and the mechanism was fit directly to the collected kinetic data to obtain the values of elementary rate constants describing the substrate binding process. The quality of the best fits was compared in terms of χ^2 values, “chi-by-eye” assessment, and confidence contour analysis assessing constraint and independency of the determined parameters which confirmed that the obtained values are well-defined by the collected kinetic data.

Data set [2] can be described thus: Thermal unfolding by NanoDSF (tryptophan fluorescence). In kind it is physicochemical. Particulars: 100 mM potassium phosphate buffer pH 7.5, 1° C./min. The procedure: Thermal unfolding was studied using NanoDSF Prometheus (NanoTemper, Germany) by monitoring tryptophan fluorescence over the temperature range of 20 to 90° C., at a heating rate of 1° C./min. The melting temperatures (Tonset and Tm) were evaluated directly by ThermControl v2.0.2.

The nature of data set [3]: Anaerobic equilibrium binding of coelenteramide product (fluorescence). The conditions noted are these: pH 7.5, 30° C., read-out: Dissociation constant Kd, Coelenteramide product. The procedure: The experiments were performed under strictly anaerobic conditions to prevent enzymatic oxidation of interacting ligands. To do so, all the equipment and material, including water, buffer, pipettes, tips, syringes, microplates, and sealing, were made anaerobic by incubating them overnight in the anaerobic glovebox Belle MR2 (Belle Technology, UK). The box was filled with ultra-high purity (UHP) nitrogen atmosphere containing the residual oxygen concentration of 2.3 ppm, as determined by the oxygen meter O2M-3 (Belle Technology, UK). Liquids were aliquoted to the volume of maximally 50 mL and were stirred overnight in the box to release any dissolved oxygen. […] If no light was observed and the mixture remained yellow even after a minute, all the reagents were ready for anaerobic measurements.
(§1) In the anaerobic glovebox, 200 μL of a differently concentrated enzyme was put into a separate well in a microplate and into each of these wells, 5 μL of coelenterazine or coelenteramide stock solution was added. […] The extent of coelenterazine binding at each concentration was determined by measuring fluorescence spectra ranging from 480 to 580 nm upon excitation at 420 nm using the microplate spectrophotometer Varioskan LUX (Thermo Scientific, USA). Binding of coelenteramide was monitored by measuring fluorescence spectra ranging from 350 to 700 nm upon excitation at 330 nm. […]

The nature of data set [4]: Steady-state kinetic analysis of full-conversion cumulative luminescence curves. In kind it is biochemical. The conditions noted are these: for kcat / Kd: 100 mM phosphate buffer pH 7.5, 37° C.; for Kd: read-out: Kp (equilibrium dissociation constant for enzyme-product complex); for Decrease of ratio Km/Kp: compared to the other tested variants; for Glow-type effectivity: kcat/Km divided by Km/Kp. Here is the method:
Each luminescence trace was measured in 3 repetitions. The concentration of coelenterazine in the final reaction mixture ranged from 0.2 to 7.9 μM while the concentration of luciferase enzymes ranged from 17 to 640 nM.
An updated protocol applying new standards for collecting and fitting steady-state kinetic data was used. Unlike the classical initial velocity analysis, which requires a sophisticated luminometer calibration and quantum yield evaluation, luminescence data were recorded when letting the reaction proceed to completion beyond the initial linear phase. The recorded luminescence traces (rate vs. time) were transformed to reaction progress curves corresponding to cumulative luminescence in time. The transformed kinetic data (product vs. time) were fitted globally with the KinTek Explorer (KinTek Corporation, USA). The software allows for the input of a given kinetic model via a simple text description, and the program then derives the differential equations needed for numerical integration automatically.
Numerical integration of rate equations searching a set of kinetic parameters that produce a minimum χ^2 value was performed using the Bulirsch-Stoer algorithm with adaptive step size, and nonlinear regression to fit data was based on the Levenberg-Marquardt method. To account for fluctuations in experimental data, enzyme or substrate concentrations were slightly adjusted (5%) to derive best fits. Residuals were normalized by sigma values for each data point. The standard error was calculated from the covariance matrix during nonlinear regression. In addition to standard error values, more rigorous analysis of the variation of the kinetic parameters was accomplished by confidence contour analysis by using FitSpace Explorer (KinTek Corporation, USA). In these analyses, the lower and upper limits for each parameter were derived from the confidence contour obtained from setting χ^2 threshold at 0.9. The scaling factor, relating luminescence signal to product concentration, was applied as one of the fitted parameters, well constrained by end-point levels of kinetic traces recorded at particular substrate concentrations. Depletion of the available substrate after the reaction was ensured by repeated injection of the fresh enzyme.
The steady-state model, described by Equation (4), was used to obtain the values of turnover number kcat, Michaelis constant Km, and equilibrium dissociation constant for enzyme-product complex Kp. A conservative estimate for diffusion-limited substrate and product binding k1 and k3 (100 μM^−1·s^−1) was used as a fixed value to mimic the rapid equilibrium assumption. An alternative form of the model, described by Equation (5), was used to obtain estimates of kcat/Km directly by setting k−1=0.

A short description of data set [5]: Anaerobic equilibrium binding of coelenterazine substrate (fluorescence). Here is the method: The experiments were performed under strictly anaerobic conditions to prevent enzymatic oxidation of interacting ligands. To do so, all the equipment and material, including water, buffer, pipettes, tips, syringes, microplates, and sealing, were made anaerobic by incubating them overnight in the anaerobic glovebox Belle MR2 (Belle Technology, UK). The box was filled with ultra-high purity (UHP) nitrogen atmosphere containing the residual oxygen concentration of 2.3 ppm, as determined by the oxygen meter O2M-3 (Belle Technology, UK). Liquids were aliquoted to the volume of maximally 50 mL and were stirred overnight in the box to release any dissolved oxygen. Two hours prior to the experiment, a closed bottle with an evacuated lyophilized enzyme (oxygen depleted) was put into the glovebox, dissolved with anaerobic water, and incubated to remove any remaining oxygen possibly dissolved in the solution. Similarly, the stock solution of coelenterazine or coelenteramide in ethanol, which was long-term stored in a freezer under the nitrogen atmosphere without oxygen, was put into the glovebox in a closed bottle. A small aliquot of coelenterazine/coelenteramide was transferred into a new empty bottle and kept open for about 20 minutes to remove the remaining dissolved oxygen. After the incubation, a few microliters of an enzyme were mixed with the same amount of coelenterazine, and the mixture was visually inspected for any possible bioluminescence. If no light was observed and the mixture remained yellow even after a minute, all the reagents were ready for anaerobic measurements.
as §1, with “added. As a blank, 200 μL of the enzyme was mixed with 5 μL of ethanol for each enzyme concentration.” for “added.”
The obtained fluorescence spectra were visually inspected for characteristic peaks, and the value of the maximal fluorescence intensity Fluomax at these peaks was plotted against the enzyme concentration. The final value of the dissociation constant Kd was determined by fitting the dependence with the hyperbolic Equation (8) using the software Origin 6.1 (OriginLab, USA).

Substitutions are numbered along the chain they refer to. In names and notes the source's numbering stands.

These results are taken from patent publication US20240279622A1, “COELENTERAZINE-UTILIZING LUCIFERASES WITH STABLE GLOW-TYPE LIGHT EMISSION AND METHODS OF PRODUCING AND USING THEREOF” (MASARYKOVA UNIVERZITA, priority 2021, published 2024).

B1: AncFT: Ancestral protein AncHLD-RLuc with the L9-α4 region transplanted from RLuc; glow-type coelenterazine-utilizing luciferase (protein)
chain: MVSASQRTTSTATGDEWWAKCKQVDVLDSEMSYYDSDPGKHKNTVIFLHGNPTSSYLWRNVIPHVEPLARCLAPDLIGMGKSGKLPNHSYRFVDHYRYLSAWFDSVNLPEKVTIVCHDWGSGLGFHWCNEHRDRVKGIVHMESVVDVIESWDEWPDIEEDIALIKSEAGEEMVLKKNFFIERLLPSSIMRKLSEEEMDAYREPFVEPGESRRPTLTWPREIPIKGDGPEDVIEIVKSYNKWLSTSKDIPKLFINADPGFFSNAIKKVTKNWPNQKTVTVKGLHFLQEDSPEEIGEAIADFLNELTK
modifications: Amino acid sequence of AncFT
For orientation: Tm means the temperature at the midpoint of the melting transition. For orientation: kcat means the number of substrate molecules converted per active site and unit of time at saturation. For the molecule B1, in data set [1] (pH 7.5), the “k+2” value turned out to be 31.9 ± 1.1 s⁻¹, the “k−1” value is 367 ± 5 s⁻¹ and the “k−2” value is 27.5 ± 0.4 s⁻¹. For the same molecule, the “k+1” value in data set [1] (pH 7.5, induced-fit binding mechanism) is 5.21e+06 ± 70000 M⁻¹ s⁻¹. For the same molecule, in data set [2], the Tm was determined as 56.6 ± 0.1 °C and the Tonset was found to be 50.5 ± 0.1 °C. In data set [3], the Kd came out at 16000 ± 2000 nM. For the same molecule, in data set [4], the turnover number (kcat) came to 0.111 ± 0.001 s⁻¹, the Kd amounted to 500 ± 100 nM, the “Decrease of ratio Km/Kp” value was found to be 10 fold and the Glow-type effectivity turned out to be 12 ± 3. In data set [5] (anaerobic, pH 7.5, 30° C., read-out: Dissociation constant Kd, Coelenterazine substrate), the Kd stood at 12000 ± 5000 nM. Besides, in data set [5] (ratio), the Kd ratio substrate/product is on record as 0.7 ± 0.3.

B2: AncFT-D160A: AncFT carrying the single-point D160A mutation; blue-shifted emission (protein)
chain: B1 chain with D160A
modifications: Amino acid sequence of AncFT-D160A
notes: AncFT carrying the single-point D160A mutation; blue-shifted emission
Take B2: in data set [2], the Tm worked out at 57.9 ± 0.1 °C and the Tonset is 51.5 ± 0.1 °C. For the same molecule, in data set [4], the kcat is 0.339 ± 0.001 s⁻¹, the Kd was determined as 230 ± 10 nM, the “Decrease of ratio Km/Kp” value is recorded as 10 fold and the Glow-type effectivity was determined as 3.6 ± 0.3.

B3: AncFT-L14: AncFT with additionally transplanted L14 loop (LVKGGKP at positions 223 to 229) from RLuc (protein)
chain: B1 chain with I223L, K224V, G225K, D226G, P228K, E229P
modifications: Amino acid sequence of AncFT-L14
notes: AncFT with additionally transplanted L14 loop (LVKGGKP at positions 223 to 229) from RLuc
As to B3, in data set [2], the midpoint of thermal melting (Tm) worked out at 47.0 ± 0.1 °C and the Tonset turned out to be 39.8 ± 0.2 °C. Further, in data set [4], the kcat came to 0.168 ± 0.001 s⁻¹, the Kd came to 550 ± 30 nM, the “Decrease of ratio Km/Kp” value is listed as 10 fold and the Glow-type effectivity was determined as 48 ± 6. In data set [4] (compared to AncFT), the “Improvement of glow-type effectivity” value amounted to 4 fold. Also, the “Improvement of glow-type effectivity” value in data set [4] (compared to RLuc8) is “more than 20 fold”.

B4: Super RLuc8: Recently reported RLuc8 enzyme variant (Rahnama et el., 2017) (protein)
chain: MTSKVYDPEQRKRMITGPQWWARCKQMNVLDSFINYYDSEKHAENAVIFLHGNATSSYLWRHVVPHIEPVARCIIPDLIGMGKSGKSGNGSYRLLDHYKYLTAWFELLNLPKKIIFVGHDWGSALAFHYAYEHQDRIKAIVHMESVVDVIESWKNWPDIEEELALIKSEEGEKMVLENNFFVETVLPSVIMRKLEPEEFAAYLEPFKEKGEVRRPTLSWPREIPLVKGGKPDVVQIVRNYNAYLRASDDLPKLFIESDPGWFSNAIIEGAKKFPNTEFVKVKGLHFLQEDAPDEMGKYIKSFVERVLKNEQ
modifications: Super RLuc8
Take B4: in data set [2], the midpoint of thermal melting (Tm) is 50.1 ± 0.2 °C and the Tonset was found to be 39.1 ± 0.3 °C. For the same molecule, in data set [4], the kcat came out at 6.49 ± 0.05 s⁻¹, the Kd worked out at 920 ± 10 nM and the Glow-type effectivity is recorded as 0.17 ± 0.02.
